# Measurements as given in paper PMC9198048, “Ursodeoxycholic acid reduces antitumor immunosuppression by inducing CHIP-mediated TGF-β degradation” (Nature Communications, 2022).
# B1: His-CHIP (enzyme, UniProt Q9WUD1 1-304, looked up)
# chain: MKGKEEKEGGARLGTGGGGSPDKSPSAQELKEQGNRLFVGRKYPEAAACYGRAITRNPLVAVYYTNRALCYLKMQQPEQALADCRRALELDGQSVKAHFFLGQCQLEMESYDEAIANLQRAYSLAKEQRLNFGDDIPSALRIAKKKRWNSIEERRIHQESELHSYLTRLIAAERERELEECQRNHEGHEDDGHIRAQQACIEAKHDKYMADMDELFSQVDEKRKKRDIPDYLCGKISFELMREPCITPSGITYDRKDIEEHLQRVGHFDPVTRSPLTQEQLIPNLAMKEVIDAFISENGWVEDY
# notes: also called PCMV6-CHIP-His
# Molecular target: T1, Flag-TGF-β1WT (UniProt P04202 30-390)
# T1 construct: TGF-β1 expressed from PCMV6-TGF-β1-Flag, constructed from the Origene plasmid PCMV6-TGF-β1-Myc-Flag (MR227339); Origene MR clones are mouse ORF clones as far as I recall; the printed sites T282 and K315 fit the precursor numbering of mouse and human TGF-β1; In cells the protein may be phosphorylated (T282) and ubiquitinated (K315); also called PCMV6-TGF-β1-Flag; source: HEK293T, transfected, in …
# T1 sequence (P04202 30-390): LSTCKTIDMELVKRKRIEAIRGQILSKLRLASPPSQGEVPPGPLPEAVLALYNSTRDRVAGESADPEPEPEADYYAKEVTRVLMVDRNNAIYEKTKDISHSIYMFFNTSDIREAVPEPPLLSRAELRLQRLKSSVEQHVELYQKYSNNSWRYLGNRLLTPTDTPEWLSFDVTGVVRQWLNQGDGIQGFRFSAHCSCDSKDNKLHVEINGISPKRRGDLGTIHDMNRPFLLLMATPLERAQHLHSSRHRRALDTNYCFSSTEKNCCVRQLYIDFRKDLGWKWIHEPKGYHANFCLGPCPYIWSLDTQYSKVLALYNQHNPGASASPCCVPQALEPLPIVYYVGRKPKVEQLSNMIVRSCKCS
# Assay: pull-down; about 1 µg His-CHIP bound to His beads mixed with 1 µg Flag-TGF-β1WT or Flag-TGF-β1T282A, 4 °C overnight, washed three times with cell lysis buffer, immunoblot
# Details: both partners purified
binder,measurement,value
B1,binding result,binds
